Data set [1] relates to Saccharomyces cerevisiae. Briefly: protein stability index of tFT-peptide fusion in deletion strain of DOA10 (PSI (0-1 scale)); higher = more stable (slower turnover). As for the experimental part:
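MPS profiling in S. cerevisiae of two library types built from selected 12-aa C-degron peptides (IN1, IN2, LN1, LN3, VN2, R1-R5, W1-W3, Atg1 and Rpa12 C-termini): saturation mutagenesis libraries and C-terminal +1 capping libraries (13 aa). Each peptide is fused to the C-terminus of a sfGFP-mCherry timer, after a GGGS linker. Cells are FACS-sorted into 8 mCherry/sfGFP bins and sequenced. PSI runs from 0 (unstable) to 1 (stable), measured once in wild type and in the das1Δ or doa10Δ background.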

Data set [2] deals with Saccharomyces cerevisiae. Briefly: protein stability index of tFT-peptide fusion in wild type (PSI (0-1 scale)); higher = more stable (slower turnover). The note with it: genetic background: wild type.
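For protein stability index of tFT-peptide fusion in deletion strain of DOA10 in this document: PSI per variant is the weighted mean of its sequencing read distribution over the sorted stability bins, counting only variants with over 10 reads summed across bins.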
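For protein stability index of tFT-peptide fusion in wild type in this document: PSI derived as read-weighted mean over the 8 sorting bins, only variants exceeding 10 total reads kept, mCherry placed adjacent to the peptide and sfGFP distal.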

Take GLYMCSKGCWFR: the values for the protein stability index in data set [1] and in data set [2] were 0.673 and 0.489, respectively.

For GLYMCSVECWFR, the protein stability index in data set [1] was found to be 0.465; in data set [2], 0.456.

GLYMCSVGCWFQ: the protein stability index was found to be 0.504 in data set [1] and 0.476 in data set [2].

On to GLYMCSVGCWFRY, for which the values for the protein stability index in data set [1] and in data set [2] were 0.619 and 0.173, respectively.

With GLYMCSVGCWFV, the figures for the protein stability index in data set [1] and in data set [2] were 0.467 and 0.4, respectively.

Take GLYMCSVGCWKR: the protein stability index in data set [1] was 0.66; in data set [2], 0.612.

Take GLYMCSVGCWSR: the results for the protein stability index in data set [1] and in data set [2] were 0.622 and 0.584, respectively.

Take GLYMCSVGCWYR: the protein stability index came out at 0.611 in data set [1] and 0.407 in data set [2].

GLYMCSVGTWFR: the protein stability index is 0.668 in data set [1] and 0.514 in data set [2].

Consider GLYMCSVGVWFR, for which the values for the protein stability index in data set [1] and in data set [2] were 0.453 and 0.198, respectively.

As to GLYMCSVVCWFR, the protein stability index in data set [1] worked out at 0.314; in data set [2] it was 0.253.

For the sequence GLYMCSWGCWFR, the protein stability index in data set [1] turned out to be 0.665; in data set [2], 0.296.

With GLYMKSVGCWFR, the protein stability index was found to be 0.673 in data set [1] and 0.257 in data set [2].

For GLYNCSVGCWFR, the protein stability index in data set [1] was 0.674; in data set [2] it was 0.414.

As to GLYRCSVGCWFR, the protein stability index in data set [1] is 0.67; in data set [2] it was 0.428.

For GVYMCSVGCWFR, the results for the protein stability index in data set [1] and in data set [2] were 0.622 and 0.276, respectively.

Regarding GYYMCSVGCWFR, the results for the protein stability index in data set [1] and in data set [2] were 0.643 and 0.227, respectively.

Regarding LITLPMCPLLLR, the protein stability index in data set [1] was 0.626; in data set [2] it was 0.349.

Regarding NVTRLDAIYFRI, the protein stability index in data set [1] came out at 0.711; in data set [2], 0.379.

For the sequence RGLRVLLPLYFR, the results for the protein stability index in data set [1] and in data set [2] were 0.673 and 0.378, respectively.

In the case of RGTRLDAIYFRI, the results for the protein stability index in data set [1] and in data set [2] were 0.684 and 0.57, respectively.

Turning to RSHRVLLPLYFR, the values for the protein stability index in data set [1] and in data set [2] were 0.651 and 0.317, respectively.

As for RSLEVLLPLYFR, the protein stability index in data set [1] stood at 0.691; in data set [2] it was 0.219.

As to RSLNVLLPLYFR, the protein stability index in data set [1] stood at 0.669; in data set [2], 0.266.

In the case of RSLQVLLPLYFR, the protein stability index was found to be 0.675 in data set [1] and 0.264 in data set [2].

As to RSLRGLLPLYFR, the protein stability index in data set [1] turned out to be 0.696; in data set [2] it was 0.444.

Take RSLRRLLPLYFR: the values for the protein stability index in data set [1] and in data set [2] were 0.683 and 0.466, respectively.

As for RSLRVCLPLYFR, the protein stability index in data set [1] came to 0.671; in data set [2], 0.194.

Regarding RSLRVLHPLYFR, the figures for the protein stability index in data set [1] and in data set [2] were 0.701 and 0.218, respectively.

With RSLRVLLNLYFR, the protein stability index was 0.659 in data set [1] and 0.397 in data set [2].

For the sequence RSLRVLLPEYFR, the results for the protein stability index in data set [1] and in data set [2] were 0.677 and 0.653, respectively.

RSLRVLLPFYFR: the values for the protein stability index in data set [1] and in data set [2] were 0.668 and 0.564, respectively.

As for RSLRVLLPIYFR, the protein stability index in data set [1] came to 0.663; in data set [2], 0.242.

Regarding RSLRVLLPLNFR, the protein stability index is 0.671 in data set [1] and 0.535 in data set [2].

For the sequence RSLRVLLPLPFR, the protein stability index in data set [1] was found to be 0.676; in data set [2], 0.64.

For the sequence RSLRVLLPLYFRM, the protein stability index in data set [1] was determined as 0.411; in data set [2] it was 0.202.

Turning to RSLRVLLPLYQR, the results for the protein stability index in data set [1] and in data set [2] were 0.659 and 0.617, respectively.

On to RSLRVLLPLYRR, for which the protein stability index is 0.673 in data set [1] and 0.624 in data set [2].

On to RSLRVLLQLYFR, for which the protein stability index was 0.606 in data set [1] and 0.383 in data set [2].

In the case of RSLRVVLPLYFR, the figures for the protein stability index in data set [1] and in data set [2] were 0.679 and 0.178, respectively.

Consider RSLSVLLPLYFR, for which the protein stability index was determined as 0.682 in data set [1] and 0.289 in data set [2].

Turning to RTLRVLLPLYFR, the protein stability index is 0.657 in data set [1] and 0.304 in data set [2].

Regarding RTTRLDAIYFRI, the values for the protein stability index in data set [1] and in data set [2] were 0.658 and 0.498, respectively.

Regarding RVGRLDAIYFRI, the protein stability index in data set [1] was 0.647; in data set [2] it was 0.412.

On to RVTRADAIYFRI, for which the results for the protein stability index in data set [1] and in data set [2] were 0.684 and 0.525, respectively.

For RVTRDDAIYFRI, the protein stability index in data set [1] is 0.684; in data set [2] it was 0.652.

In the case of RVTRLDADYFRI, the protein stability index was 0.722 in data set [1] and 0.686 in data set [2].

As to RVTRLDAEYFRI, the figures for the protein stability index in data set [1] and in data set [2] were 0.693 and 0.675, respectively.

Regarding RVTRLDAFYFRI, the figures for the protein stability index in data set [1] and in data set [2] were 0.713 and 0.644, respectively.

Turning to RVTRLDAIIFRI, the protein stability index turned out to be 0.703 in data set [1] and 0.499 in data set [2].

With RVTRLDAIYDRI, the protein stability index was found to be 0.731 in data set [1] and 0.696 in data set [2].

With RVTRLDAIYFGI, the protein stability index in data set [1] turned out to be 0.721; in data set [2], 0.682.

For RVTRLDAIYFRID, the figures for the protein stability index in data set [1] and in data set [2] were 0.603 and 0.54, respectively.

Take RVTRLDAIYGRI: the values for the protein stability index in data set [1] and in data set [2] were 0.724 and 0.69, respectively.

For RVTRLDAIYSRI, the results for the protein stability index in data set [1] and in data set [2] were 0.737 and 0.702, respectively.

Regarding RVTRLDATYFRI, the protein stability index in data set [1] is 0.69; in data set [2] it was 0.661.

In the case of RVTRLDDIYFRI, the protein stability index worked out at 0.731 in data set [1] and 0.689 in data set [2].

As to RVTRLDTIYFRI, the results for the protein stability index in data set [1] and in data set [2] were 0.69 and 0.423, respectively.

RVTYLDAIYFRI: the protein stability index in data set [1] turned out to be 0.563; in data set [2], 0.393.

Regarding RYTRLDAIYFRI, the protein stability index in data set [1] was found to be 0.673; in data set [2], 0.421.

VITLPMCPLLLR: the values for the protein stability index in data set [1] and in data set [2] were 0.615 and 0.303, respectively.

As to YITLPMCPLLLR, the protein stability index in data set [1] is 0.616; in data set [2] it was 0.337.

On to YLYMCSVGCWFR, for which the protein stability index in data set [1] was determined as 0.586; in data set [2], 0.317.

On to YVTRLDAIYFRI, for which the protein stability index was 0.603 in data set [1] and 0.185 in data set [2].

The values above are taken from the supplement of paper PMC10724198.
